# Laboratory results from the supplement of paper PMC12764529.
# ± gives the half width of the 95% confidence interval.
# Assay: folding stability dG unfold from chymotrypsin proteolysis; higher = more stable
# In short: (§1)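 Designed mini-proteins with no cysteine and under 80 residues were kept only if AlphaFold2 dimer inter-PAE was above 15. In a PA-tagged cDNA display construct, they were digested with trypsin and chymotrypsin and then sequenced. K50 was inferred by Bayesian fitting of counts, and unfolding free energy was derived per protease or combined against a sequence-predicted unfolded-state K50 and a shared folded-state K50.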
row,Sequence,folding stability dG unfold
1,SAGGKKKKVKKKKPVYRIKIKLKNGEEIEIEAKSKEEAEKAAKELLKKLFPEKKIDEIKIVEIEKLPPSAGG [r13_887_TrROS_Hall],11.3 ± 0.502 kJ/mol
2,SAAKKLKELGYKVKKVEVLKPFTLPDGTTLTEYRITVELPTKTVTVDIIAPGESPEIAEEAALAAITASSAG [r14_726_TrMRF],13.21 ± 0.046 kJ/mol
3,SAGGSAGGSAGGLSPGDEIKIRIMIFYRDPGSGNMRPIQPFPITIKIEPPPPKPKDPNNNSAGGSAGGSAGG [r7_522_TrROS],16 ± 0.356 kJ/mol
4,SAGVEELFRRLGAEVSVTRRPDGSLVVTFRLPDGRTIVVFVTPDGVRVVVVDPSGERRTLSLEDLKRLASAG [r14_578_TrMRF],17.15 ± 0.146 kJ/mol
5,SAGGSASLNLTPDDNVTLTVSTPDGSGATVEVKVEKLPDGTIKLTETVTWPDGTVSTRTSTISTKASAGGSA [r15_476_JUSTAS],2.5 ± 0.117 kJ/mol
6,SAMKVEKLEELPDKEILKVEATPEELRKIVEELAKANPGYEVSYKILEEEPIALITLTPIPKGPKENLVSAG [r14_600_JUSTAS],0.0729 ± 0.837 kJ/mol
7,SAGGSAGGSADLLEELPGLEVVDIERKGNSVVALFRNKETGELVRVTVDADGNITVEVLPLESAGGSAGGSA [r18_26_TrROS_Hall],16.8 ± 0.301 kJ/mol
8,SAGGMTTLTLETTDEGKPLGLEEILARLREALPGVPVEVLSADPAKGVVTIAVAPEAVPEIERAVAASAGGS [r8_235_JUSTAS],8.78 ± 0.092 kJ/mol
9,SAGGSAGGSAGGDPDDKPPKIEWKPIEYSFYLPNGWMISDEIWVFPDNGAILISIEIMPSAGGSAGGSAGGS [r10_881_TrROS],15.3 ± 1.3 kJ/mol
10,SAGGSAGGSAMPVKVKVTVKARFGDKEFELEFEIEVGPGATEEDIKNLVTEKYPGFEEVELESAGGSAGGSA [r18_195_JUSTAS],9.05 ± 0.46 kJ/mol
11,SAGGEKIEELLKELLEKLEIKPGEKVEIEIEFELEDGYRIKLKITVTYNEETGEVEIKVEIVEIEKVSAGGS [r16_634_TrROS_Hall],18.4 ± 0.711 kJ/mol
12,SAGGSAGGSAGGGMKVKIETTKLPNGIWRVKVYDENGNFIGEKEFTSEEELEEFKKKVASSAGGSAGGSAGG [r7_476_JUSTAS],19.2 ± 0.586 kJ/mol
13,SAGKKLIIRVEVYRREKNENGEIKKVTETLEVPPGATIEELVKALAPPGYTIRIEIIENGKIIETIEIKSAG [r5_278_TrROS_Hall],15 ± 0.36 kJ/mol
14,SAGGSAMTVTTLPDGSTVIHLPSGTTITITTAPDGTKPITITPPDGVPTTFPASVSLEDAIKAALSSAGGSA [r15_371_JUSTAS],11.2 ± 0.142 kJ/mol
15,SAGGSAGGSAMTPDETRTVVVEEELPNGEPVVRVTDVRTLPDGSLETLGERVITREELEERSAGGSAGGSAG [r3_212_JUSTAS],3.11 ± 0.268 kJ/mol
16,SAGGMMIVIRIPNKPVEFEINGWKIEYNPDEGTIIIPFPPEMLDQLEKLPGLEGIKDIEIIPPGELKSAGGS [r8_493_TrROS],10.7 ± 0.213 kJ/mol
17,SAGGSAGGGAAPRTRVIEVLFPVPPDVTVEEIAERLRALYPDAVLVAEAERLPDGYVRVVVTLRSAGGSAGG [r6_566_TrMRF],14.8 ± 0.326 kJ/mol
18,SAGGSMPVPYESKNVSPSGVEVSSTTYPYDFQIEKFPGSNPVITRTDPKTGEVTPIGTEEELEKLLKSAGGS [r8_232_JUSTAS],0.763 ± 0.879 kJ/mol
19,SAGGMTLTIEIVVPPGTTVEELKKALEELGYEITSIEVEYDPETDLVTVRMEIRLPPPPPVSEEEKKSAGGS [r16_584_TrROS_Hall],13.5 ± 0.669 kJ/mol
20,SMTLITLTDPVTNVPVEKVEVRKLEDGTYEATVTTKEPSKTTTKTYPLPPDEKITDVLKSLGLKEAEINLSA [r9_492_JUSTAS],2.25 ± 0.389 kJ/mol
21,SAGGSAGGSASSSTFPRRNYTVTITTDPSNGKKTVTVLNPATGEATTLTPEELEADPVLAEAVSAGGSAGGS [r12_817_JUSTAS],7.55 ± 0.0879 kJ/mol

# Assay: folding stability dG unfold (combined trypsin and chymotrypsin); higher = more stable
# In short: as §1
row,Sequence,folding stability dG unfold
1,SAGGSAGGSAGGMVVLKTPERFVVVESVEVYVPVRDPDGTPVRWSPVRTEVRVTVIPPLASAGGSAGGSAGG [r7_3_JUSTAS],7.77 ± 0.243 kJ/mol
2,SAGGSAGGSAGGMITVEVEVPGDEAEAEARREAIAEELAAEGHEDVPITVTFVSPEEAASAGGSAGGSAGGS [r10_1099_JUSTAS],2.68 ± 1.51 kJ/mol
3,SAGGSAGGSAGGKIKDIDVQQMPDGWYWVEIEIPDPNGEEVKITIMFPPGHSVDDALDQLSAGGSAGGSAGG [r7_54_TrROS],4.34 ± 0.92 kJ/mol
4,SAGGSAGGSAGGSPNYRLEIRVDIKVSYRYDLFTGEPIEPEVEIEVEIRLIPEGAIVDESAGGSAGGSAGGS [r4_175_TrMRF],19.1 ± 1.17 kJ/mol
5,SEFPESVPVDWVERELTFSSSSKEELEKKIKELLKNIEIEVSYDPKTNKYTLKIKFPSKEKAEKVEELLSSA [r9_764_JUSTAS],12.4 ± 0.586 kJ/mol
6,SAGGMTYVLPNGERLLVRVSVRTEPRLDPDRPELVLEPRVEIELFAVSPDLTLRPVPEELARELFEKESAGG [r13_809_TrMRF],5.04 ± 0.184 kJ/mol
7,SAGMKLTVTITDPATGKTYTITVKPGGETTVTNGSSTTSISIPTSDPKKVEELAEEIEPKGYTATITLESAG [r5_791_JUSTAS],5.45 ± 0.36 kJ/mol
8,SSPIMIKMKDPDDREKIEKAVEEINDETGMSIRPESVDPNGKYTFMINMPPEHQKKILKALREAGNIEIVSA [r9_472_TrROS],3.66 ± 0.669 kJ/mol
9,SAGKETIKIKLFDKNGKLIAEIEIEKLPDGTYKIKIKNKKTGKELEIEVKIEDGKIYIKLPNGAILEIESAG [r5_809_TrROS_Hall],21.1 ± 0.837 kJ/mol
10,SAGGSAGGSAGKKKGKKPKKIKVKKIKLIVKDKETNEYYEKEITVNKDGTLTIKVKKLKKSAGGSAGGSAGG [r11_883_TrROS_Hall],11.5 ± 0.418 kJ/mol
11,SVKVEVSISYDPETNTITITVRVYYKDENGNWTEVATITITIKIELPPPPPKTITLKPGVKTKEEAKKALSA [r9_888_TrROS_Hall],12.6 ± 0.962 kJ/mol
12,SAGGPEELAERIAEFARENGYEVDVLSVEELPGDFVRIHMRIRGLSEDEPVFERDAVLVFPPLPGERSAGGS [r8_102_TrMRF],12.5 ± 0.218 kJ/mol
13,SAEIEVKPGEELEITVNGKKLRITVEKVEVRVEVKELPPPPPPEVEVYTLTRDPATDELRLERRTAEELASA [r9_881_TrROS_Hall],0.964 ± 0.628 kJ/mol
14,SAGGSAGVSTSKGSSVTTLKIDYKDDVVIKYSYNPSTGTVYTTVIDPETGNPVTVETYSVSPDVPLSAGGSA [r15_425_JUSTAS],4.25 ± 0.155 kJ/mol
15,SAGGSAGGSAGPLSTVTETTTTVPLPNGEVLTVTTYTYPDLGVTTVTTTYPDGTVTTTTIPVSAGGSAGGSA [r18_88_JUSTAS],10.3 ± 0.172 kJ/mol
16,SAGGSAKVKYKKDKNGNTYPVVEEKKKIKLTVKIKIFDKNGKLVKEITFPANMTLEEIEKEIKKLLSAGGSA [r15_309_TrROS_Hall],6.75 ± 0.753 kJ/mol
17,SAGGSAGGMHINAPGSIEELEEKLGGPIAEATLEGPGTFTLTLENGVPITVSFDDPEQLEELIESAGGSAGG [r6_13_TrMRF],1.62 ± 0.753 kJ/mol
18,SAGGSAGGSPGMKPVEIPFRNPDGKNWKITSIYVMPDGPAMITIEDPNNGKERQIPAEDIDEFSAGGSAGGS [r12_488_TrROS],-0.57 ± 0.879 kJ/mol
19,SAGGSAGGSAGMRKYTWPFRIPLGGKPFEIRVEMEYDPSSGKHRIEITPEAKDLIKKKIFSAGGSAGGSAGG [r11_91_TrROS],3.66 ± 0.243 kJ/mol
20,SAGGSAGGSAEKGIAFILLVTEEGDLEKALETAEELKKELEEKTGKPVEVVVNIFVVEPELFSAGGSAGGSA [r18_515_TrMRF],9.38 ± 0.586 kJ/mol
21,SAGPYYVRITVSIYYPGNGAPHQHTIPIKGKTLDDIKDEIRDEIRDHGMKMDPGDEVEIQITDIEVYPGSAG [r5_230_TrROS],5.36 ± 0.314 kJ/mol

row,Sequence,folding stability dG unfold
1,SAGGKKKKVKKKKPVYRIKIKLKNGEEIEIEAKSKEEAEKAAKELLKKLFPEKKIDEIKIVEIEKLPPSAGG [r13_887_TrROS_Hall],11.2 ± 0.669 kJ/mol
2,SAAKKLKELGYKVKKVEVLKPFTLPDGTTLTEYRITVELPTKTVTVDIIAPGESPEIAEEAALAAITASSAG [r14_726_TrMRF],11.8 ± 0.213 kJ/mol
3,SAGGSAGGSAGGLSPGDEIKIRIMIFYRDPGSGNMRPIQPFPITIKIEPPPPKPKDPNNNSAGGSAGGSAGG [r7_522_TrROS],12.9 ± 0.502 kJ/mol
4,SAGVEELFRRLGAEVSVTRRPDGSLVVTFRLPDGRTIVVFVTPDGVRVVVVDPSGERRTLSLEDLKRLASAG [r14_578_TrMRF],16 ± 0.243 kJ/mol
5,SAGGSASLNLTPDDNVTLTVSTPDGSGATVEVKVEKLPDGTIKLTETVTWPDGTVSTRTSTISTKASAGGSA [r15_476_JUSTAS],3.73 ± 0.172 kJ/mol
6,SAMKVEKLEELPDKEILKVEATPEELRKIVEELAKANPGYEVSYKILEEEPIALITLTPIPKGPKENLVSAG [r14_600_JUSTAS],3.33 ± 0.544 kJ/mol
7,SAGGSAGGSADLLEELPGLEVVDIERKGNSVVALFRNKETGELVRVTVDADGNITVEVLPLESAGGSAGGSA [r18_26_TrROS_Hall],16.7 ± 0.46 kJ/mol
8,SAGGMTTLTLETTDEGKPLGLEEILARLREALPGVPVEVLSADPAKGVVTIAVAPEAVPEIERAVAASAGGS [r8_235_JUSTAS],8.19 ± 0.31 kJ/mol
9,SAGGSAGGSAGGDPDDKPPKIEWKPIEYSFYLPNGWMISDEIWVFPDNGAILISIEIMPSAGGSAGGSAGGS [r10_881_TrROS],14.1 ± 3.97 kJ/mol
10,SAGGSAGGSAMPVKVKVTVKARFGDKEFELEFEIEVGPGATEEDIKNLVTEKYPGFEEVELESAGGSAGGSA [r18_195_JUSTAS],9.05 ± 0.502 kJ/mol
11,SAGGEKIEELLKELLEKLEIKPGEKVEIEIEFELEDGYRIKLKITVTYNEETGEVEIKVEIVEIEKVSAGGS [r16_634_TrROS_Hall],17.7 ± 0.795 kJ/mol
12,SAGGSAGGSAGGGMKVKIETTKLPNGIWRVKVYDENGNFIGEKEFTSEEELEEFKKKVASSAGGSAGGSAGG [r7_476_JUSTAS],18.8 ± 0.795 kJ/mol
13,SAGKKLIIRVEVYRREKNENGEIKKVTETLEVPPGATIEELVKALAPPGYTIRIEIIENGKIIETIEIKSAG [r5_278_TrROS_Hall],13.5 ± 1.3 kJ/mol
14,SAGGSAMTVTTLPDGSTVIHLPSGTTITITTAPDGTKPITITPPDGVPTTFPASVSLEDAIKAALSSAGGSA [r15_371_JUSTAS],13 ± 0.134 kJ/mol
15,SAGGSAGGSAMTPDETRTVVVEEELPNGEPVVRVTDVRTLPDGSLETLGERVITREELEERSAGGSAGGSAG [r3_212_JUSTAS],1.65 ± 0.46 kJ/mol
16,SAGGMMIVIRIPNKPVEFEINGWKIEYNPDEGTIIIPFPPEMLDQLEKLPGLEGIKDIEIIPPGELKSAGGS [r8_493_TrROS],8.88 ± 0.586 kJ/mol
17,SAGGSAGGGAAPRTRVIEVLFPVPPDVTVEEIAERLRALYPDAVLVAEAERLPDGYVRVVVTLRSAGGSAGG [r6_566_TrMRF],13.4 ± 0.347 kJ/mol
18,SAGGSMPVPYESKNVSPSGVEVSSTTYPYDFQIEKFPGSNPVITRTDPKTGEVTPIGTEEELEKLLKSAGGS [r8_232_JUSTAS],0.411 ± 0.544 kJ/mol
19,SAGGMTLTIEIVVPPGTTVEELKKALEELGYEITSIEVEYDPETDLVTVRMEIRLPPPPPVSEEEKKSAGGS [r16_584_TrROS_Hall],11.4 ± 0.711 kJ/mol
20,SMTLITLTDPVTNVPVEKVEVRKLEDGTYEATVTTKEPSKTTTKTYPLPPDEKITDVLKSLGLKEAEINLSA [r9_492_JUSTAS],1.86 ± 0.711 kJ/mol
21,SAGGSAGGSASSSTFPRRNYTVTITTDPSNGKKTVTVLNPATGEATTLTPEELEADPVLAEAVSAGGSAGGS [r12_817_JUSTAS],6.34 ± 0.18 kJ/mol
